Measured values taken from patent publication US20260242478A1 (published 2026).
Several values for one entry are separate records, joined by “and”; a condition that tells them apart may be missing. Identical values can stand only once. Like-named read-outs stand apart in the source and are kept apart here. Where no end group is shown, it is not given here.

Legend:
[1] = biological target: T1, anti-CD28 scFv (disulfide); assay: competition ELISA, peptide titrated 0-100 uM against 0.3 nM anti-CD28 scFv (disulfide), plate-bound CD28 as competitor
T1 construct: also called Anti-CD28 scFv (VH - linker 1 - VL) Disulfide mutation: G44C, G235C

anti-CD28 Fab [2] = assay: competition ELISA, peptide titrated 0-100 uM against 1 nM anti-CD28 Fab, plate-bound CD28 as competitor
anti-CD28 scFv = biological target: T2, anti-CD28 scFv; assay: BLI (Octet RED96): biotinylated peptide on streptavidin sensor, anti-CD28 scFv at 100-12.5 nM, 1:1 model
T2 construct: also called Anti-CD28 scFv (VH - linker 1 - VL)

[3] = biological target: T3, Anti-CD28 Fab (SEQ ID NOs: 696, 697); assay: phage binding ELISA on captured anti-CD28 Fab; wells pre-incubated with CD28 antigen as competitor
T3 construct: In the phage ELISA the Fab was biotinylated and captured on neutravidin coated plates

[4] = biological target: T3, Anti-CD28 Fab (SEQ ID NOs: 696, 697); assay: phage binding ELISA; biotinylated anti-CD28 Fab captured on neutravidin plate, clonal phage supernatant, anti-M13 HRP detection
[5] = biological target: T4, Anti-CD28 Fab (SEQ ID NOs: 696, 697); assay: phage binding ELISA; biotinylated Fab on neutravidin plate, clonal phage supernatant, anti-M13 HRP; background signal 0.06
T4 construct: Biotinylated and captured on neutravidin coated plates in the phage ELISA

[6] = biological target: T4, Anti-CD28 Fab (SEQ ID NOs: 696, 697); assay: phage binding ELISA on captured Fab; competitor: CD28 antigen pre-incubated in the wells
anti-CD28 Fab [7] = assay: BLI (Octet): biotinylated peptide on streptavidin sensor, anti-CD28 Fab titrated in solution, 1:1 model
anti-CD28 Fab [8] = assay: competition ELISA: peptide titrated (0-100 µM) with 1 nM anti-CD28 Fab, binding to plate-bound CD28
[9] = biological target: T5, anti-CD28 scFv (disulfide); assay: competition ELISA: peptide titrated (0-100 µM) with 0.3 nM anti-CD28 scFv (disulfide), binding to plate-bound CD28
T5 construct: also called Anti-CD28 scFv (VH - linker 1 - VL) Disulfide mutation: G44C, G235C

Ab-15 [10] = assay: BLI (Octet): sensor loaded with 200 nM biotinylated peptide, 100 nM Ab-15
Ab-15 [11] = assay: binding ELISA: biotinylated peptide on neutravidin plate, Ab-15 titrated
Ab-15 [12] = assay: competition ELISA: peptide titrated against 1 nM Ab-15; competitor plate-bound CD28
anti-CD28 Fab [13] = assay: competition ELISA, peptide titrated 0-100 uM against 1 nM anti-CD28 Fab, plate-bound CD28 as competitor; remark: listed apart in the source
anti-CD28 Fab [14] = assay: as above; remark: listed apart in the source
PSMA Fab [15] = biological target: T6, PSMA Fab; assay: competition ELISA; peptide 0-100 µM with 0.3 nM PSMA Fab on plate-captured biotinylated PSMA
T6 construct: also called 006 PSMA Fab; anti-PSMA Fab

PSMA Fab [16] = biological target: T6, PSMA Fab; assay: as above; remark: listed apart in the source
PSMA Fab [17] = biological target: T6, PSMA Fab; assay: binding ELISA; PSMA Fab titrated on plate-captured biotinylated peptide
PSMA Fab [18] = biological target: T6, PSMA Fab; assay: BLI (Octet); PSMA Fab on sensor-loaded biotinylated peptide, 1:1 model

WCWDYKLWVPMTCP [Peptide-85]
IC50 [1]: > 100 µM | IC50 (anti-CD28 Fab [2]): > 100 µM

ACDTYFAGMINECF [Peptide-79]
IC50 [1]: > 100 µM | IC50 (anti-CD28 Fab [2]): > 100 µM

MDWCPRERWVDCFF (cysteine pairing not given here; also: biotinylated, site not given here) [Peptide-9]
Kd (anti-CD28 scFv): 0.377 µM | koff (anti-CD28 scFv): 0.0123 s⁻¹ | kon (anti-CD28 scFv): 32500 M⁻¹ s⁻¹

YCAGHASEYLQKCL [Phage-1328 (Peptide-87 library sequence, SEQ ID NO: 1644)]
Phage binding ELISA, Anti-CD28 Fab signal in the presence of CD28 [3]: 0.06 | Phage binding ELISA, Anti-CD28 Fab signal [4]: 0.43

B1: Phage-1020 (Peptide-87 library peptide, SEQ ID NO: 1336) (peptide)
peptide: YCEGHIMQYMAQCL
notes: tested as crude clonal phage supernatant
Anti-CD28 Fab signal (phage binding ELISA) [5]: 1.49 | Anti-CD28 Fab signal in the presence of CD28 (phage binding ELISA) [6]: 0.06

B2: Peptide-87 (peptide)
peptide: YCAGHAWQYINKCL
modifications: not fully specified; cysteine pairing not given here; also: biotinylated, site not given here
Kd (anti-CD28 Fab [7]): 2.02 µM | koff (anti-CD28 Fab [7]): 0.0202 s⁻¹ | kon (anti-CD28 Fab [7]): 10000 M⁻¹ s⁻¹ | t1/2 (anti-CD28 Fab [7]): 36 s | IC50 (anti-CD28 Fab [8]): 12.6 µM | IC50 [9]: 11 µM and 14.6 µM

B3: Peptide-111 (peptide)
peptide: YCAGHAWAYINKCL
notes: Alanine scan variant of Peptide-87 (Q8A)
IC50 (anti-CD28 Fab [8]): 12.3 µM | IC50 [9]: 10.5 µM

B4: Peptide-110 (peptide)
peptide: YCAGHAAQYINKCL
notes: Alanine scan variant of Peptide-87 (W7A)
IC50 (anti-CD28 Fab [8]): 3.16 µM | IC50 [9]: 1.91 µM

B5: Peptide-113 (peptide)
peptide: YCAGHAWQYANKCL
notes: Alanine scan variant of Peptide-87 (I10A)
IC50 (anti-CD28 Fab [8]): 102 µM

B6: Peptide-114 (peptide)
peptide: YCAGHAWQYIAKCL
notes: Alanine scan variant of Peptide-87 (N11A)
IC50 (anti-CD28 Fab [8]): 5.49 µM | IC50 [9]: 7.09 µM

B7: Peptide-116 (peptide)
peptide: YCAGHAWQYINKCA
notes: Alanine scan variant of Peptide-87 (L14A)
IC50 (anti-CD28 Fab [8]): 98.6 µM | IC50 [9]: 76.4 µM

B8: Phage-1014 (Peptide-87 library peptide, SEQ ID NO: 1330) (peptide)
peptide: YCDGHSQEYMEKCL
notes: as for B1
Anti-CD28 Fab signal (phage binding ELISA) [5]: 1.5 | Anti-CD28 Fab signal in the presence of CD28 (phage binding ELISA) [6]: 0.06

YCAGHSPINIGKCL [Peptide-84]
IC50 [1]: > 100 µM | IC50 (anti-CD28 Fab [2]): 26.8 µM

YCDGHSQIYMSKCL [Phage-1329 (Peptide-87 library sequence, SEQ ID NO: 1645)]
Phage binding ELISA, Anti-CD28 Fab signal in the presence of CD28 [3]: 0.06 | Phage binding ELISA, Anti-CD28 Fab signal [4]: 0.42

B9: Phage-1013 (Peptide-87 library peptide, SEQ ID NO: 1329) (peptide)
peptide: YCEGHSLMYMAKCL
notes: as for B1
Anti-CD28 Fab signal (phage binding ELISA) [5]: 1.5 | Anti-CD28 Fab signal in the presence of CD28 (phage binding ELISA) [6]: 0.06

B10: Phage-1012 (Peptide-87 library peptide, SEQ ID NO: 1328) (peptide)
peptide: YCEGHMPQYMEKCL
notes: as for B1
Anti-CD28 Fab signal (phage binding ELISA) [5]: 1.51 | Anti-CD28 Fab signal in the presence of CD28 (phage binding ELISA) [6]: 0.06

B11: Phage-1021 (Peptide-87 library peptide, SEQ ID NO: 1337) (peptide)
peptide: YCDGHLPIYQAKCL
notes: as for B1
Anti-CD28 Fab signal (phage binding ELISA) [5]: 1.49 | Anti-CD28 Fab signal in the presence of CD28 (phage binding ELISA) [6]: 0.1

LDWCPRHLWALCFN (cysteine pairing not given here; also: biotinylated, site not given here, CD28 peptide mask) [Peptide-70]
Octet signal (200 nM peptide) (Ab-15 [10]): 0.697 | EC50 (Ab-15 [11]): 0.0082 µM | IC50 (Ab-15 [12]): 0.47 µM

GYCHYWGDMVMWCG (cysteine pairing not given here; also: biotinylated, site not given here) [Peptide-12]
Kd (anti-CD28 scFv): 0.017 µM | koff (anti-CD28 scFv): 0.00167 s⁻¹ | kon (anti-CD28 scFv): 98700 M⁻¹ s⁻¹

B12: Phage-1022 (Peptide-87 library peptide, SEQ ID NO: 1338) (peptide)
peptide: YCDGHSEQYIAKCL
notes: as for B1
Anti-CD28 Fab signal (phage binding ELISA) [5]: 1.49 | Anti-CD28 Fab signal in the presence of CD28 (phage binding ELISA) [6]: 0.08

YCAGHAWQYINKCL
IC50 [1]: > 100 µM | IC50 (anti-CD28 Fab [2]): 13.8 µM | IC50 (anti-CD28 Fab [13]): 12.6 µM | IC50 (anti-CD28 Fab [14]): 9.76 µM

B13: Phage-1010 (Peptide-87 library peptide, SEQ ID NO: 1326) (peptide)
peptide: YCDGHSELYMAKCL
notes: as for B1
Anti-CD28 Fab signal (phage binding ELISA) [5]: 1.51 | Anti-CD28 Fab signal in the presence of CD28 (phage binding ELISA) [6]: 0.06

MDWCPRDLWVHCFA [Peptide-41]
IC50 [1]: 61.5 µM | IC50 (anti-CD28 Fab [2]): > 100 µM

YCDGHTWMYKQKCL [Phage-1333 (Peptide-87 library sequence, SEQ ID NO: 1649)]
Phage binding ELISA, Anti-CD28 Fab signal in the presence of CD28 [3]: 0.08 | Phage binding ELISA, Anti-CD28 Fab signal [4]: 0.4

YCDGHLPEYMEKCL [Phage-1327 (Peptide-87 library sequence, SEQ ID NO: 1643)]
Phage binding ELISA, Anti-CD28 Fab signal in the presence of CD28 [3]: 0.07 | Phage binding ELISA, Anti-CD28 Fab signal [4]: 0.43

IDWCPLHLWHECYH (cysteine pairing not given here; also: biotinylated, site not given here, CD28 peptide mask) [Peptide-72]
Octet signal (200 nM peptide) (Ab-15 [10]): 0.838 | EC50 (Ab-15 [11]): 0.0133 µM | IC50 (Ab-15 [12]): 1.52 µM

YCTGWQVAYMQNCF [Phage-1331 (Peptide-87 library sequence, SEQ ID NO: 1647)]
Phage binding ELISA, Anti-CD28 Fab signal in the presence of CD28 [3]: 0.06 | Phage binding ELISA, Anti-CD28 Fab signal [4]: 0.42

YCDGHWPGYLWKCL [Phage-1330 (Peptide-87 library sequence, SEQ ID NO: 1646)]
Phage binding ELISA, Anti-CD28 Fab signal in the presence of CD28 [3]: 0.06 | Phage binding ELISA, Anti-CD28 Fab signal [4]: 0.42

YCAGHLDEYMEKCL [Phage-1332 (Peptide-87 library sequence, SEQ ID NO: 1648)]
Phage binding ELISA, Anti-CD28 Fab signal in the presence of CD28 [3]: 0.07 | Phage binding ELISA, Anti-CD28 Fab signal [4]: 0.4

IYWCPIDRWNDCYN (cysteine pairing not given here; also: biotinylated, site not given here, CD28 peptide mask) [Peptide-74]
Octet signal (200 nM peptide) (Ab-15 [10]): 0.705 | EC50 (Ab-15 [11]): 0.0076 µM | IC50 (Ab-15 [12]): 0.41 µM

VPWCQIISGLECLT (cysteine pairing not given here; also: biotinylated, site not given here, CD28 peptide mask) [Peptide-73]
Octet signal (200 nM peptide) (Ab-15 [10]): 0.166 | EC50 (Ab-15 [11]): 0.0549 µM | IC50 (Ab-15 [12]): > 100 µM

IAVLCQPNWMCAGF (cysteine pairing not given here; also: biotinylated, site not given here, PSMA mask peptide) [Peptide-180]
IC50 (PSMA Fab [15]): 5.23 µM | IC50 (PSMA Fab [16]): 4.14 µM | EC50 (PSMA Fab [17]): 0.102 µM | Off rate t1/2 (PSMA Fab [18]): 36 s

IAVLCAPNWMCAGF (Alanine-scan variant Q6A of Peptide-180) [Peptide-254]
IC50 (PSMA Fab [15]): 15.7 µM

IAVLCQPAWMCAGF (Alanine-scan variant N8A of Peptide-180) [Peptide-256]
IC50 (PSMA Fab [15]): 2.16 µM

B14: Peptide-259 (peptide)
peptide: IAVLCQPNWMCAAF
notes: Alanine-scan variant G13A of Peptide-180
IC50 (PSMA Fab [15]): 67.9 µM

IAVACQPNWMCAGF (Alanine-scan variant L4A of Peptide-180) [Peptide-253]
IC50 (PSMA Fab [15]): 28.2 µM

B15: Peptide-260 (peptide)
peptide: IAVLCQPNWMCAGA
notes: Alanine-scan variant F14A of Peptide-180
IC50 (PSMA Fab [15]): 60 µM
